We go through two proteins from paper PMC4769845, “Structures of EccB1 and EccD1 from the core complex of the mycobacterial ESX-1 type VII secretion system” (BMC Structural Biology, 2016).

Data set [1] concerns the molecule itself. The data set can be described thus: crystal structure; cyto-EccD1mt alone; sitting drop, 0.1 M Tris-HCl pH 8.5, 0.2 M Mg chloride, 30 % PEG4000; two molecules in the asymmetric unit; 1.88 Å.
Data set [2] concerns the molecule itself. The experiment in a line: crystal structure; MBP-cyto-EccD1mt fusion, maltose-bound; sitting drop, 0.1 M HEPES pH 7.5, 1.4 M Na citrate; two molecules in the asymmetric unit; 2.20 Å.

B1: cytoplasmic domain of EccD1 from M. tuberculosis (cyto-EccD1mt) (domain or fragment)
chain: ATTRVTILTGRRMTDLVLPAAVPMETYIDDTVAVLSEVLEDTPADVLGGFDFTAQGVWAFARPGSPPLKLDQSLDDAGVVDGSLLTLVS
notes: also called Rv3877; not shown: His6, N-terminal, cleaved
For the protein B1, in data set [1], the binding result is “binds”.

B2: cyto-EccD1mt fused to maltose binding protein (MBP-cyto-EccD1mt) (domain or fragment)
chain: ATTRVTILTGRRMTDLVLPAAVPMETYIDDTVAVLSEVLEDTPADVLGGFDFTAQGVWAFARPGSPPLKLDQSLDDAGVVDGSLLTLVS
notes: EccD1 (Rv3877) of Mycobacterium tuberculosis H37Rv, cytoplasmic ubiquitin-like domain, residues 21-109, the same DNA fragment as in m1, placed after MBP; also called MBP fusion protein; not shown: His6, N-terminal, cleaved; MBP, N-terminal, kept
Take B2: in data set [2], the binding result was “binds”.
